# From article PMC6522346 (Science (New York, N.Y.), 2018)
# B1: MdtB (natural protein)
# chain: MQVLPPSSTGGPSRLFIMRPVATTLLMVAILLAGIIGYRALPVSALPEVDYPTIQVVTLYPGASPDVMTSAVTAPLERQFGQMSGLKQMSSQSSGGASVITLQFQLTLPLDVAEQEVQAAINAATNLLPSDLPNPPVYSKVNPADPPIMTLAVTSTAMPMTQVEDMVETRVAQKISQISGVGLVTLSGGQRPAVRVKLNAQAIAALGLTSETVRTAITGANVNSAKGSLDGPSRAVTLSANDQMQSAEEYRQLIIAYQNGAPIRLGDVATVEQGAENSWLGAWANKEQAIVMNVQRQPGANIISTADSIRQMLPQLTESLPKSVKVTVLSDRTTNIRASVDDTQFELMMAIALVVMIIYLFLRNIPATIIPGVAVPLSLIGTFAVMVFLDFSINNLTLMALTIATGFVVDDAIVVIENISRYIEKGEKPLAAALKGAGEIGFTIISLTFSLIAVLIPLLFMGDIVGRLFREFAITLAVAILISAVVSLTLTPMMCARMLSQESLRKQNRFSRASEKMFDRIIAAYGRGLAKVLNHPWLTLSVALSTLLLSVLLWVFIPKGFFPVQDNGIIQGTLQAPQSSSFANMAQRQRQVADVILQDPAVQSLTSFVGVDGTNPSLNSARLQINLKPLDERDDRVQKVIARLQTAVDKVPGVDLFLQPTQDLTIDTQVSRTQYQFTLQATSLDALSTWVPQLMEKLQQLPQLSDVSSDWQDKGLVAYVNVDRDSASRLGISMADVDNALYNAFGQRLISTIYTQANQYRVVLEHNTENTPGLAALDTIRLTSSDGGVVPLSSIAKIEQRFAPLSINHLDQFPVTTISFNVPDNYSLGDAVQAIMDTEKTLNLPVDITTQFQGSTLAFQSALGSTVWLIVAAVVAMYIVLGILYESFIHPITILSTLPTAGVGALLALLIAGSELDVIAIIGIILLIGIVKKNAIMMIDFALAAEREQGMSPREAIYQACLLRFRPILMTTLAALLGALPLMLSTGVGAELRRPLGIGMVGGLIVSQVLTLFTTPVIYLLFDRLALWTKSRFARHEEEA
# B2: adenine nucleotide translocase 1 (natural protein)
# chain: MSDQALSFLKDFLAGGVAAAISKTAVAPIERVKLLLQVQHASKQISAEKQYKGIIDCVVRIPKEQGFLSFWRGNLANVIRYFPTQALNFAFKDKYKQIFLGGVDRHKQFWRYFAGNLASGGAAGATSLCFVYPLDFARTRLAADVGKGAAQREFTGLGNCITKIFKSDGLRGLYQGFNVSVQGIIIYRAAYFGVYDTAKGMLPDPKNVHIIVSWMIAQTVTAVAGLVSYPFDTVRRRMMMQSGRKGADIMYTGTVDCWRKIAKDEGPKAFFKGAWSNVLRGMGGAFVLVLYDEIKKFV
# B3: CyoB (natural protein)
# chain: MFGKLSLDAVPFHEPIVMVTIAGIILGGLALVGLITYFGKWTYLWKEWLTSVDHKRLGIMYIIVAIVMLLRGFADAIMMRSQQALASAGEAGFLPPHHYDQIFTAHGVIMIFFVAMPFVIGLMNLVVPLQIGARDVAFPFLNNLSFWFTVVGVILVNVSLGVGEFAQTGWLAYPPLSGIEYSPGVGVDYWIWSLQLSGIGTTLTGINFFVTILKMRAPGMTMFKMPVFTWASLCANVLIIASFPILTVTVALLTLDRYLGTHFFTNDMGGNMMMYINLIWAWGHPEVYILILPVFGVFSEIAATFSRKRLFGYTSLVWATVCITVLSFIVWLHHFFTMGAGANVNAFFGITTMIIAIPTGVKIFNWLFTMYQGRIVFHSAMLWTIGFIVTFSVGGMTGVLLAVPGADFVLHNSLFLIAHFHNVIIGGVVFGCFAGMTYWWPKAFGFKLNETWGKRAFWFWIIGFFVAFMPLYALGFMGMTRRLSQQIDPQFHTMLMIAASGAVLIALGILCLVIQMYVSIRDRDQNRDLTGDPWGGRTLEWATSSPPPFYNFAVVPHVHERDAFWEMKEKGEAYKKPDHYEEIHMPKNSGAGIVIAAFSTIFGFAMIWHIWWLAIVGFAGMIITWIVKSFDEDVDYYVPVAEIEKLENQHFDEITKAGLKNGN
# B4: ExbB (natural protein)
# chain: MGNNLMQTDLSVWGMYQHADIVVKCVMIGLILASVVTWAIFFSKSVEFFNQKRRLKREQQLLAEARSLNQANDIAADFGSKSLSLHLLNEAQNELELSEGSDDNEGIKERTSFRLERRVAAVGRQMGRGNGYLATIGAISPFVGLFGTVWGIMNSFIGIAQTQTTNLAVVAPGIAEALLATAIGLVAAIPAVVIYNVFARQIGGFKAMLGDVAAQVLLLQSRDLDLEASAAAHPVRVAQKLRAG
# Columns and labels:
# Assay in all cases: native MS
# [1] = biological target: Anchor Cell Fusion Failure protein 1
# complex IV = biological target: complex IV
# [2] = biological target: complex III (Bos taurus (endogenous in bovine mitochondria)) (UniProt P00157)
# native MS = biological target: the molecule itself
molecule,measurement,setting,value
Anchor Cell Fusion Failure protein 1 (natural protein),stoichiometry N,[1],2
complex IV,stoichiometry N,complex IV,2
complex III (from UniProt P00157;P00129),stoichiometry N,[2],2
B1,stoichiometry N,native MS,2
B2,stoichiometry N,native MS,2
B3,stoichiometry N,native MS,2
B4,stoichiometry N,native MS,5
